Results from the NTF2 design screens of Basanta et al. (2020).

Assay: protease stability score; higher = more stable; yeast display proteolysis, trypsin and chymotrypsin;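 note: relative to predicted unfolded state with 0 unfolded-like and 1 meaning tenfold more protease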

Sequence	protease stability score
DEHEELMRTLAEIVLRIFLTGDWDSFSKLADPNYRIDWNGRHTHGMHLAERVLREIHRQIRIDNVILQDMRIQGNKVHNHGTIDGNINGVHDKVQTHVHLILVDGRLKEVEFRHH	-0.231
DEHEEMFTKLMRELIHIWLTGDEDILNHMADPNVLVEINGRREHGREALSRFLEKFKNVRIHLHSSTAIGEKSIIDTQININGKQIKVRVEIYMVDGKIKEIRLDIQ	1.29
DEHEEMVRIFIKLFIHNSHTGNEEELTRMADPHTKVDVNGKEYIGREEWRRFFMELGVDHVEVRRVHVQGEKAEVDLELNIDGRVIRFHIYTLKINGKWIIKSLEVR	1.78
DEHEENVRKDIKEHEETEKTGDEKAYLEMADPHVKVDIDGVDLHGMERVTNFYRELLHKFPNIRIHTRHVDVQGEKVHVETELEWNGVKLETELVWVKINGRWLTHEIHIR	1.2
DEHEEQIEEFWRITVDQWMTGNEELIETYLDPNARVDINGKQTHGREQVTRLMLREMKHMRIKSIKLRRVRIVDGRVDLDGTLHGEVNGREFVLESHVHAEKFDGRWLIRTIKVN	2.23
DEHEEQVRRFLHHLWRSVQTGDEHELANNFDPNTRVDVGDKHLHGMERFVYLIFEFARHWRIRHTTLHFIVRIGEFIEVDHILDGEIDGRRREVKMTIIIFKVDGRWIIRSMEVK	1.82
DEHEERLEHWAEVIIRSWITGDESLFRHLFDPHVRTEVNGVERHGRDEAVKMERLIREHLGVKHEEIKDYHVQGDKIHVDSRVDVNGVKINTRIHVLVVNGRIKEVRFEFD	0.841
DEHEESAEWHSELMIRSMETGDEDLFEHLLDPRARFHINGQDIHGRDSISHFLSRRLKDMGFKHSSLKTVTIEVQGEWVYLRIKVILIVDGRHLDTEIIIISRKIDGVWHVHSMEIRFR	1.34
DEHEESVIWLLDVMFDAWRTGDEERVRRYLDPNVRIEVDGVSIHGRERVVEHLRRIDHLSVERVEIHHSTVINGVARTDGHVLLEFNIGDKHFRIERKSDSIVEKIDGRWIVHELTYR	0.202
DEHEETIKRLAEIMEKWWFTGDEDALRLLLDPHVRIHLHQGDFNLDLIGMEHLRRLIHELIRKLGIDHSILKDRDIQGDKVTIHMELRIGDKTVTSHITMVMINGRLESFKIHFK	1.32
DEHEETMHWALEVIEEFLQTGDERLMEENLDPNVRLEYGDKILVGRELFLELLRRLVEKYKNIRINIHDIKLYDGRLYLDVELRYGDFRSTTRIFSEKYNGRWVDRSYHVE	1.71
DEHEEYMEELVKSIYTLWKTGDEDTLLSLFDPNMRILIDGVDAVGRENFKEEFRRFKEEIRHKDHKIHHIDIQGEKIRTEVLVHGIWDGVDTTLHVEIRIVVINGRVKSIEFHFT	1.74
DEHEHAFRIIAEMLVEAMKTGNEETFSRLFDPNVRITWNGRHNHGRENYVEFIRQIRVDDLHIVLEDVRVIDGVIEVHGKMRIHGIVNGRRDEFIWESRVVIVKIDGRWHIESIRFD	1.09
DEHEHFMEYAMKRMLHSWLTGDEHDWHELADPNVKLHIGEYNFIGREEYYRHLHRHLHEAGFKHIKIDHIHVEIQGEKLIFRMDTTIHFNGRKLRVEVIVILFKVNGRWSLHTDEVHIE	0.931
DEHEHLALRMTTRFTDMLRTGDWENMLRYFDPDARIIIDGRKHHGRERMHEIWREIRVTDLRINRERVRVQGDFVINHIDGEEDVEIGDKRISTRSIIILVVHKIDGRWHMKELEINIV	0.796
DEHEHLMLKVVLISIRALLTGDEDRFEHLADPHTRVEVNGVERHGREEYRKWLEHIRIKHIEVEESRAQGDFVHLNGRLRVSYGDKRFETETRWDWIIVDGKLKEMRIRIN	1.26
DEHEHMTELAHRIIMKTWETGDEEEQHRMFDPHARLIIDGKNIHGREQIQREMKRFSEEIRLRDATIHRVEIQGNKVISDWRLRIDVDGREVHFESHVIIRKVNGRWRIDHLILN	1.21
DEHEHQADHMQEILIRSHETGDEDLIREFFDPHARLDIGDKHNIGRESIKRFIHELLRILGLDNITLRVRHKTIQGDKIITHLELEVNGKRLEVIIHNEKINGQWSVRKVEWR	1.98

Sequence	protease stability score
DEHEHVVERMARIQYKEMVTGDEELWYHLADPRVRYEIGDKEIIGREEVFRFIIEHKRDLGISKIDVRIRDIDLQGEWAIIDGTININGRKLETTIHLLVVDGRLKTFSLEIK	1.33
DEHEKEWQELFRLAAHVLETGDEKMLQHLIDPSARTRINGKYTHGWEESARTLHEIRRRLGIDHEEITDHEIQGDKVIIHGRSQVGDKNFTVNIEWIIVNGRLKSVNFTIH	0.55
DEHEKHDRELKRIWVELFETGDEDTLIELADPNPRSRVNGKEFHGMEDIVQFLREWKMRIKGVREEIHHVDVINGRVRIDMKRFVGDKEFDVTIHLYVINGRFKQEEVRVH	0.222
DEHEKIIKHFLELFMWALRTGDEEINRHLVDPNVRVDVNGVILIGREEVVHYLRHLQEKLGMEIEEVRVEDMSVFDGRLHVDMRIHGRIGDKHTTIETHYLILKFDGRWILEHRRIR	2.37
DEHEMEIRDFIDKFLQSLRTGDEEKVHKLIDPHVRTQIDGQEFHGREEFLRFLRTHLERLGVDHIDVDLQQIEIVGEKINIHGTLTIEIDGRYLRHTFHLRVEKVNGKWIIESIRMT	2.15
DEHENVMHDAIENIEHMIHTGDEHISERLLDPNVKLDVNGRRFHGWEEFNKWLHHMGADVVDHKRLESQGDKVHTDGRVFFNGREYDSEINSLKVNGRWLITEVRIH	0.337
DEHEQEANEMMHRSLETLETGDERLLRHMADPNTKVQVGDKTWHGWHLLHEYRKEFRHARIIIREIDIQGEFVFLHGELDVNGKRLERTIIQLKVDGRWILHHMHLR	0.435
DEHEQFLRDIAIILIHAHLTGDWKRLEEMLDPNVRFEIDINGRSIEQHGRELYLRWVRKIHNEIWFRIEIEDISVINGRASVKVRLDLNVGDKVLHTRIHIEVVVIDGVLRSESIRVR	2.69
DEHERDAHRFIEHLWRILATGDEEELRKLFDPDAKHHDENELYHGREKVTKFISHRFKHLGIDHVEFRLTDLEVQGDKVISRILVIQRVNGVEYRIDMLFIFHKINGRWLIKSLEVH	1.36
DEHEREMHRLVDLLIKLLETGDEEISLRLADPHTRHDINGVHDHGRDKWEKSWEEHKKHLGWRIHYRIRDFRTQGDKARMEIQVDLHIGDKNIHLETHLLLISIDGVIKEIRIIIL	1.39
DEHERLAEIALRLYVHDIRTGDEHRLRKLFDPHVRFVIGDKVYHGWEEMKWILEHIRRELGVKHIKDEDSRHVHLQGDKMYTELRLHVNQGDYETELEVFMVSVKVNGQWLTHSFELR	1.21
DEHERLLIKIARIITNLLLTGDEDIMEELADPNVRFELDFNGVDIHLIGMDFWRHNLEHWWVDHFRLEDVKIQGDYAHLKLNVHMEINGRRHETHTRLSIVVVNGKLKSMRFHLI	1.2
DEHETDKQLAIDLLIEVIQTGDEHTTRRLADPNVKVVIDGREFHGRDFLARMIHEMRFHRIHVEEVRVIDGVVHSNLRVRGEYNGKHVDTRSSIHIKKVNGRWVIESVLIE	2.04
DEHHEEIHRLVEIFLHLELTGDEDTWRELADPTAQIHIDGRDIHGMEDVLRVWEQFKKEMGIDHIRVKDYKVQGNFMHINTELEFNGRRVDSRIEIYIYDGRIKSVIIRYR	2.25
DEHHEFSRTATEMWIHFMETGDEHDLRNLIDPNVKTKVGDKHHHGREFLVKWLLTFMERADHVEIRLNDIKLQGDKIHIEGRLIIIVGDKEIHIHVERDIIKVNGRWVVHSVIFR	1.21
DEHHEILDHFLHLWIEALHTGDWKLIEKLIDPHAKLRIHQGDKHIEIHGREEVVRREEEWLRRIKNLRLHIDRIEIQGNKFHMEITLHFDGVTVDSRVILFVYDGQIKHIEIRHN	2.43
DEHHEILREASELFIKAWLTGDEDTMQEMMDPHTRVVFNGRTHHGWTFASEILERIKNIRIQIDDVRHQGEYVEIHFKLHIDGVRWNTKIHLHVIDGKLKRIQHTTE	1.01
DEHHEIVRSMSELLTHLHLTGDEEKLSRMADPRVRLDVNGQWFHGREQWEKAFEDFEREMGAKHVKVDHVHVQGNKIILHFHVNVDGVHITVEFDIIIVDGRLKREHIRLK	0.621
